From patent US20220111042A1, “MANF as a Regulator of Immune System Function” (University of Massachusetts, priority 2014, published 2022)
Read-outs that look alike come from different tables or passages of the source.

Legend:
DO 11.10 cells [1] = experiment: Ara-C dose-response for cell death of DO 11.10 cells; type: cell-based; conditions: dose-response curve
MANF expression [2] = conditions: mouse splenocytes treated with cyclophosphamide; cited from earlier work
DO 11.10 cells [3] = experiment: Dexamethasone dose-response for cell death of DO 11.10 cells; type: cell-based; conditions: dose-response curve
Experimental: FIGS. 10A-B provides an analysis of MANF's ability to protect DO 11.10 cells from cell death caused by the glucocorticoid dexamethasone. […] DO 11.10 cells were pretreated for 24 hrs with MANF (dose shown; B) and then challenged with 100 nM dexamethasone to induce cell death. *p=0.003; **p=0.019.
(§1) Because MANF is expressed in T cells and is induced when they become activated, experiments were performed to determine whether MANF confers protection to these cells. A dose-response curve was generated with the glucocorticoid dexamethasone to determine the dose that results in ˜50% cell death (24 nM) (FIG. 10A). DO 11.10 cells were then pretreated for 24 hours with 0, 10 ng/mL, 100 ng/mL, 1 μg/mL, 10 μg/mL, or 50 μg/mL MANF before exposure to 100 nM dexamethasone to investigate a protective effect for MANF. […] These are key functional data.

MANF expression [4] = conditions: male C57BL/6 B cells, B cell activation (CD40 at 65 nM); cited from earlier work
MANF expression [5] = conditions: immortalized B cells from 60 human individuals, tunicamycin to induce ER stress vs untreated; cited from earlier work
[6] = system: midbrain dopaminergic neurons; conditions: primary nigral neuron cell cultures; cited from earlier work
DO 11.10 cells [7] = experiment: MANF pretreatment protecting DO 11.10 cells from Ara-C induced cell death; type: cell-based; conditions: 1, 10, 100 ng/mL MANF, 24 hours pretreatment, then 10 μM Ara-C
Text: FIGS. 11A-B provide an analysis of MANF's ability to protect DO 11.10 cells from cell death caused by the DNA damaging chemotherapeutic drug cytosine arabinoside (Ara-C). […].

dopaminergic neurons = conditions: cited from earlier work
DO 11.10 cells [8] = experiment: MANF pretreatment protecting DO 11.10 cells from dexamethasone induced cell death; type: cell-based; conditions: 24 hours pretreatment, then 100 nM dexamethasone
Experimental: FIGS. 10A-B provides an analysis of MANF's ability to protect DO 11.10 cells from cell death caused by the glucocorticoid dexamethasone. […]. DO 11.10 cells were pretreated for 24 hrs with MANF (dose shown; B) and then challenged with 100 nM dexamethasone to induce cell death. *p=0.003; **p=0.019.
as §1

KLH-specific IgM = KLH-specific IgM ELISA after injection of mice with TNP-KLH/alum with MANF or PBS; type: in vivo; conditions: 8 week old male mice, i.p. 100 μg TNP-KLH with 5% alum plus 200 μL of 1 μg/μL MANF vs PBS; blood seven days later; p=0.0013
Experimental: FIG. 5 provides an ELISA analysis of anti-KLH specific IgM titers between mice injected with 2,4,6, Trinitrophenyl hapten conjugated Keyhole Limpet Hemocyanin (TNP-KLH) and either 200 μL of 1 μg/μL MANF (KLH-MANF; right) or phosphate buffered saline (KLH-PBS; left). P=0.0013, Student's t-test.
Based on the expression in the non-germinal cells within the lymph nodes it was speculated that MANF might enhance antibody production and provide for faster and/or higher titers of antibodies following exposure to a novel antigen. To test this hypothesis, 8 week old male mice were injected intraperitoneally with 100 μg of sterile TNP-KLH (2,4,6, Trinitrophenyl hapten conjugated Keyhole Limpet Hemocyanin) with 5% alum in the presence of 200 μL of 1 μg/μL MANF or an equal volume of PBS. Blood was sampled via the submandibular vein seven days later and the KLH-specific IgM analyzed using an enzyme linked immunoassays (ELISA) from Life Diagnostics, Inc. The concentration was calculated from a standard curve. A Student's t-test was used to establish statistical significance (p=0.0013).

[9] = injection of MANF into 6-OHDA treated rat brains

With `Nc1ccn([C@@H]2O[C@H](CO)[C@@H](O)[C@@H]2O)c(=O)n1` [Ara-C, cytosine arabinoside] as the molecule, how does the “LD50 (dose that results in 50% cell death)” value (DO 11.10 cells [1]) read?
Its value is roughly 5 µM.

Which MANF expression (MANF expression [2]) does the source give for `O=P1(N(CCCl)CCCl)NCCCO1` (centres unmarked) [cyclophosphamide] here?
Its MANF expression is “highly induced”.

For `C[C@@H]1C[C@H]2[C@@H]3CCC4=CC(=O)C=C[C@]4(C)[C@@]3(F)[C@@H](O)C[C@]2(C)[C@@]1(O)C(=O)CO` [dexamethasone], which “LD50 (dose that results in ~50% cell death)” value (DO 11.10 cells [3]) is on record?
The value was 24 nM.

With “B-cell activating factor: ligand used for B cell activation in ligand screen” as the molecule, how does the MANF expression (MANF expression [4]) read?
The MANF expression was “dramatic, but transient, repression”.

With tunicamycin as the molecule, how does the MANF expression (MANF expression [5]) read?
Its MANF expression is “higher levels of MANF expression”.

B1: MANF: mesencephalic astrocyte-derived neurotrophic factor, an 18 kDa secreted protein; form used in the tests not stated (protein, UniProt P55145 25-182, looked up)
Mesencephalic …: LRPGDCEVCISYLGRFYQDLKDRDVTFSPATIENELIKFCREARGKENRLCYYIGATDDAATKIINEVSKPLAHHIPVEKICEKLKKKDSQICELKYDKQIDLSTVDLKKLRVKELKKILDDWGETCKGCAEKSDYIRKINELMPKYAPKAASARTDL
Which results are given for B1?
protection of dopaminergic neurons from death [6]: protected these midbrain dopaminergic neurons from death; protection against Ara-C induced cell death (DO 11.10 cells [7]): dose-dependent protection; behavioral symptoms associated with the disorder (dopaminergic neurons; [9]): reduced the behavioral symptoms; loss of dopaminergic neurons (dopaminergic neurons; [9]): statistically significant reduction; dopaminergic neuron survival and motor defects (dopaminergic neurons; up to 4 weeks after 6-OHDA treatment): improve dopaminergic neuron survival and correct motor defects; protection against dexamethasone induced cell death (DO 11.10 cells [8]; 10 ng/mL MANF, p=0.003): statistically significant, does-dependent protection; protection against dexamethasone induced cell death (DO 11.10 cells [8]; 100 ng/mL MANF, p=0.019): statistically significant, does-dependent protection; protection against dexamethasone induced cell death (DO 11.10 cells [8]; higher doses of MANF (1, 10, 50 μg/mL)): No statistically significant effects; levels of anti-KLH IgM antibodies (KLH-specific IgM): significantly increased
